Measured values: patent US20240391959A1 (Bicycle, published 2024)
Starred links: 1 amine or outer side, 2 acyl side, 3 side chain; linkers in the order of their positions; H or OH if unused. Positions of bridges follow the written chain, without caps; N, C: chain ends. No end group written: not given here. TATB = O=C(C[*:1])N1CN(C(=O)C[*:2])CN(C(=O)C[*:3])C1

Experiments:
[1] = biological target: T1, Recombinant cynomolgus transferrin receptor 1 (TfR1), His6-tagged, a.a. 89-760 (cynomolgus, UniProt H9EXL1 89-760 (rhesus entry)); test: SPR, TfR1 on chip; Table 2, geomean of n = 2
T1 construct: range 89-760; Bought, ACRO Biosystems TFR-C524a; also called Cyno TfR1; Cynomolgus TfR1; not shown: His6 tag
T1 sequence (chain, as listed by the source): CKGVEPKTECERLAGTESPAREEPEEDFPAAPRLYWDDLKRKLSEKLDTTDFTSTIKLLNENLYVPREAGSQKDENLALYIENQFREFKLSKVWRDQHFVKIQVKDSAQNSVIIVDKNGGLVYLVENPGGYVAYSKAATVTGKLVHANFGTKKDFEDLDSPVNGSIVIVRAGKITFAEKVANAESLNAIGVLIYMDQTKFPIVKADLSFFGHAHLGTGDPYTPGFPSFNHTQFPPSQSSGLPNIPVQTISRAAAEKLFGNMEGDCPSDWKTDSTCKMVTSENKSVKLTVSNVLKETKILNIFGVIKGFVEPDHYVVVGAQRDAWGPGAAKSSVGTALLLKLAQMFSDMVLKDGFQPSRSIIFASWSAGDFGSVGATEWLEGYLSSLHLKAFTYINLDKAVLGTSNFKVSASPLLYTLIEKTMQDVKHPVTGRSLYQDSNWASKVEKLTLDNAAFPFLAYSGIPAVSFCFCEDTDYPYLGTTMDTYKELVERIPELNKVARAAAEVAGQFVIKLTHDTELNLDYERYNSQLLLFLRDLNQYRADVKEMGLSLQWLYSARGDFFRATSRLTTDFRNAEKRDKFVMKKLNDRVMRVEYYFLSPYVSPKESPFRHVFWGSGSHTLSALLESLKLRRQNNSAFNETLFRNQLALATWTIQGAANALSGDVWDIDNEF

[2] = biological target: T2, Recombinant human transferrin receptor 1 (TfR1), His6-tagged, a.a. 89-760 (human, UniProt P02786 89-760); test: SPR, TfR1 on chip; Table 2, geomean of n = 5
T2 construct: range 89-760; SPR used ACRO Biosystems CD1-H5243 (His6, a.a. 89-760); also called Human TfR1; CD71; not shown: His6 tag
T2 sequence (P02786 89-760 limits assumed): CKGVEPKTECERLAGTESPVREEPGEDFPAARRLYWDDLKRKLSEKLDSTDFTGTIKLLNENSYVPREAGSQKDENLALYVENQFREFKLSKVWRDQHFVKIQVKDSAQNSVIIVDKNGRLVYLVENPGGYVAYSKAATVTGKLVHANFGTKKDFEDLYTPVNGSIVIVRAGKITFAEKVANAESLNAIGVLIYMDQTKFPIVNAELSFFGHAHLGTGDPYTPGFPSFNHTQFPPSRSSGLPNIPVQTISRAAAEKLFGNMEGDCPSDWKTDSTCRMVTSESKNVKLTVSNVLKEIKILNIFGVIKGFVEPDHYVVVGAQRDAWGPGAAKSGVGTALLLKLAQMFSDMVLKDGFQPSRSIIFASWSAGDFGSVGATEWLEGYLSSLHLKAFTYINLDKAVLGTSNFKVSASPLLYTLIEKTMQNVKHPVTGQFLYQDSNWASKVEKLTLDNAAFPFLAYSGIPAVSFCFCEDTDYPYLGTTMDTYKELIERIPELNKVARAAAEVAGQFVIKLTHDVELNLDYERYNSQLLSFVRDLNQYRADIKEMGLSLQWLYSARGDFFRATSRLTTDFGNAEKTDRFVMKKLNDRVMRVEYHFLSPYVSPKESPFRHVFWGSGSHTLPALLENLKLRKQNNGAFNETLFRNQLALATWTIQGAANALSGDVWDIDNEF

Row | Binder | Kd [1] [nM] | Kd [2] [nM]
1 | ACPPDSWQGCISYCA (Cys Ci, Cii, Ciii on TATB scaffold) [BCY13989] | 3440 | 
2 | ACSPDAHLGCISYCA (linker 2-10-14 via TATB) [BCY15468] |  | 37.8
